Values quoted from earlier work, collected in patent publication US9084831B2, “Molecular probe precursor for imaging of pancreatic islet, and use thereof” (Kyoto University, priority 2008, dated 2015).

Details: mouse, in vivo, iv; cited from earlier work

^125I labeled exendin(9-39): exendin(9-39), a GLP-1R ligand, 125I-labeled by Bolton-Hunter labeling (PerkinElmer NEX 335)
accumulation and binding among organs: accumulates selectively and specifically in the pancreas among organs
